Measured values taken from article PMC10786891, “Massively parallel profiling of RNA-targeting CRISPR-Cas13d”.
Residue numbers refer to the chain shown, from its start. Numbers in names are those of the source.

Experiments:
[1] = tested on: dRfxCas13d (Ruminococcus flavefaciens); experiment: BLI; conditions: 6 mM Mg2+; BLI: 40 mM Tris-HCl pH 7.5, 150 mM NaCl, 6 mM MgCl2, 1 mM DTT, 0.1% Tween-20, 0.2 mg/ml BSA; RNP 25-100 nM (dRfx 25 nM only); temperature not stated
dEsCas13d = biological target: T1, dEsCas13d (Eubacterium siraeum, UniProt B0MS50 1-954, R295A;H300A;R849A;H854A); experiment: BLI; 6 mM Mg2+; BLI: 40 mM Tris-HCl pH 7.5, 150 mM NaCl, 6 mM MgCl2, 1 mM DTT, 0.1% Tween-20, 0.2 mg/ml BSA; RNP 25-100 nM (dRfx 25 nM only); temperature not stated; conditions: protein: recombinant, tags: 6xHis-TwinStrep-SUMO, cleaved, 22 nt crRNA-target match
T1 sequence: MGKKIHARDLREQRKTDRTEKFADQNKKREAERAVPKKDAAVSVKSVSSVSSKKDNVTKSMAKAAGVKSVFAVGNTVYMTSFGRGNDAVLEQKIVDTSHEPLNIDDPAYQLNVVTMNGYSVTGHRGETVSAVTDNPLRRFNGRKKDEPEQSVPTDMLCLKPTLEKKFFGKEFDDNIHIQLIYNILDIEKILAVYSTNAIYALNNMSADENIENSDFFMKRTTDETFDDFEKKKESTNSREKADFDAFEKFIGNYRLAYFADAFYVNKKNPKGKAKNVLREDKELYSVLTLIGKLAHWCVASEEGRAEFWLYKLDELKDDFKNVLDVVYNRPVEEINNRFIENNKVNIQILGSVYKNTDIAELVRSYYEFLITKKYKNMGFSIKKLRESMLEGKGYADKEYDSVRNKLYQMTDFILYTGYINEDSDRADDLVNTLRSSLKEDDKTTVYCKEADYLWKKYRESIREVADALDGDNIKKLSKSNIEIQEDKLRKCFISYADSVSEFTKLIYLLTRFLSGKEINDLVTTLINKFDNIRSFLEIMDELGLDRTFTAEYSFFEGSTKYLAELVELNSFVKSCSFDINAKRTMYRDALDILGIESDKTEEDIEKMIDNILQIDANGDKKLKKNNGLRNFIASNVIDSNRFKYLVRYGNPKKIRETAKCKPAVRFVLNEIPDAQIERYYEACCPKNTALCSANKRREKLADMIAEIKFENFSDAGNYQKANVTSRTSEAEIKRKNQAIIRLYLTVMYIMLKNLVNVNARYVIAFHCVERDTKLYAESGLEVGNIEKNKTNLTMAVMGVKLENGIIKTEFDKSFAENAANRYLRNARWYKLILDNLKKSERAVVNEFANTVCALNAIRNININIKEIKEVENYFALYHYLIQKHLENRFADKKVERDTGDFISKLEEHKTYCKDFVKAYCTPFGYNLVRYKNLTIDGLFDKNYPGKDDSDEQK

[2] = biological target: T2, RfxCas13d (CasRx), nuclease-dead (Ruminococcus flavefaciens, R239A;H244A;R858A;H863A); experiment: BLI; crRNA (strand 1, pre-loaded); Mg2+; 40 mM Tris-HCl pH 7.5, 150 mM NaCl, 6 mM MgCl2, 1 mM DTT, 0.1% Tween-20, 0.2 mg/ml BSA; temperature not stated; conditions: tags: His6-TwinStrep-SUMO cleaved; label: 3' biotin on strand 2
T2 chain: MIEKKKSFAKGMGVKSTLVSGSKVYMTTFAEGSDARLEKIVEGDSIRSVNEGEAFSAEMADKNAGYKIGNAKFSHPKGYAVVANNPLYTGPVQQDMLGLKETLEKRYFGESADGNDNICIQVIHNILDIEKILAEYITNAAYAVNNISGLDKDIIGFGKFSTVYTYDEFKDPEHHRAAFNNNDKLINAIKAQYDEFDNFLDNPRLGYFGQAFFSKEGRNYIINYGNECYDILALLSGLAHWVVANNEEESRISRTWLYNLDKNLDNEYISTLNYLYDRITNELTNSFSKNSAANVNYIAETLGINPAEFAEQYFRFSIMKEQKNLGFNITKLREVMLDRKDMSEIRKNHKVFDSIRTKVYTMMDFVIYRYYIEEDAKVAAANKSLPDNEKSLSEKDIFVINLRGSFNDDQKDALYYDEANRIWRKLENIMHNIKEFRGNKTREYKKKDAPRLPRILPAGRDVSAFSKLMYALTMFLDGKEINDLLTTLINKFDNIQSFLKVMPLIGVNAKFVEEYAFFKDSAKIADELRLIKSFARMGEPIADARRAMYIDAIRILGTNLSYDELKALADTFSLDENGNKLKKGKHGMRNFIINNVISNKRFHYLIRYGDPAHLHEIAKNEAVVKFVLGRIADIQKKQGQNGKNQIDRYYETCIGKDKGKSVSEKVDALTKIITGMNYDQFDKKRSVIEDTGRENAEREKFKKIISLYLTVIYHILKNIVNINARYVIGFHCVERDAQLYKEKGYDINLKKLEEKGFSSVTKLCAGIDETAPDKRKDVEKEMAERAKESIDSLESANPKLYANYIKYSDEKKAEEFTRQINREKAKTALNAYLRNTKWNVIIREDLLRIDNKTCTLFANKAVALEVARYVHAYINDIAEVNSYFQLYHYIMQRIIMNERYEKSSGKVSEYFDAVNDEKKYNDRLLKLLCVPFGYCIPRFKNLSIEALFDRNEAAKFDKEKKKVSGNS

## AACCCCUACCAACUGGUCGGGGUUUGAAACUGAGCGGAUAACCUCUCUAUGG / CCACAUCUACGAAUUCGUACCAUAGAGAGGUUAUCCGAUCACCGAGAUCGGAAGAGCACA [Rfx crRNA_Target 1 / C4A]
[1]
  Kd: 0.132 nM

B1: crRNA_Target 1 / MT (5'-GUA PFS) (ssRNA)
RNA 1: CACCCGUGCAAAAAUGCAGGGGUCUAAAACUGAGCGGAUAACCUCUCUAUGG
RNA 2: CCACAUCUACGAAUUCGUACCAUAGAGAGGUUAUCCGCUCACCGAGAUCGGAAGAGCACA
dEsCas13d; label: 3' biotin on target
  Kd: 3.1 ± 0.018 nM

B2: target 1 A20C (60-mer) (mixed)
RNA 1: AACCCCUACCAACUGGUCGGGGUUUGAAACUGAGCGGAUAACCUCUCUAUGG
RNA 2: B1 RNA 2 with A22C
[2]
  Kd: ~0.556 nM

B3: crRNA_Target 1 / U9-flanked target (ssRNA)
RNA 1: B1 RNA 1
RNA 2: UUUUUUUUUCCAUAGAGAGGUUAUCCGCUCAUUUUUUUUU
dEsCas13d
  Kd: 1.6 ± 0.024 nM

B4: target 1 G15A (60-mer) (mixed)
RNA 1: B2 RNA 1
RNA 2: B1 RNA 2 with G27A
[2]
  Kd: ~0.119 nM
